# From patent US20230174595A1
# Tests used:
# [1] = target: recombinant His-tagged HIV-1 gp120 Q769.h5 (Clade A) (HIV-1 strain Q769.h5)
# [2] = target: recombinant His-tagged HIV-1 gp120 Q769.h5 (Clade A) (HIV-1 strain Q769.h5); assay: SPR, His-tagged gp120 on NTA chip (FIG. 7)
Substance,Kd [1] [nM],fold increase in affinity compared to AH [2] [fold]
"actinohivin (AH), wild type (from UniProt Q9KWN0 47-160)",29.6,
AvFc lectibody (Avaren fused via a linker to the Fc region of human IgG1) (Fc fusion),4.2,10
